In publication PMC4585563, “Small angle X-ray scattering studies of CTNNBL1 dimerization and CTNNBL1/CDC5L complex” (Scientific Reports, 2015):
Substitutions are numbered along the chain they refer to. Names may count otherwise.

B1: CDC5L^141-377 (domain or fragment, human, UniProt Q99459 141-377, looked up)
chain: PIDMDEDELEMLSEARARLANTQGKKAKRKAREKQLEEARRLAALQKRRELRAAGIEIQKKRKRKRGVDYNAEIPFEKKPALGFYDTSEENYQALDADFRKLRQQDLDGELRSEKEGRDRKKDKQHLKRKKESDLPSAILQTSGVSEFTKKRSKLVLPAPQISDAELQEVVKVGQASEIARQTAEESGITNSASSTLLSEYNVTNNSVALRTPRTPASQDRILQEAQNLMALTNVDT
notes: CDC5L of the human hPrp19/CDC5L complex, residues 141-377 of the N-terminal domain; holds NLS3 (residues 200-206: KKRKRKR); cloned into pET-30a(+); also called 6xHis-tagged CDC5L 141-377; source: E. coli, purified as CTNNBL1 with 300 mM NaCl in the buffers, without TEV protease
B2: CDC5L^141-285 (domain or fragment, human, UniProt Q99459 141-285, looked up)
chain: PIDMDEDELEMLSEARARLANTQGKKAKRKAREKQLEEARRLAALQKRRELRAAGIEIQKKRKRKRGVDYNAEIPFEKKPALGFYDTSEENYQALDADFRKLRQQDLDGELRSEKEGRDRKKDKQHLKRKKESDLPSAILQTSGV
notes: CDC5L of the human hPrp19/CDC5L complex, residues 141-285; holds NLS3 (residues 200-206: KKRKRKR); cloned into pET-30a(+); also called 6xHis-tagged CDC5L 141-285; source: E. coli, purified as CTNNBL1 with 300 mM NaCl in the buffers, without TEV protease
B3: CTNNBL1^Q199R (domain or fragment, human, UniProt Q8WYA6 77-563, looked up)
chain: LDESSVKKMILTFEKRSYKNQELRIKFPDNPEKFMESELDLNDIIQEMHVVATMPDLYHLLVELNAVQSLLGLLGHDNTDVSIAVVDLLQELTDIDTLHESEEGAEVLIDALVDGQVVALLVRNLERLDESVKEEADGVHNTLAIVENMAEFRPEMCTEGAQQGLLQWLLKRLKAKMPFDANKLYCSEVLAILLQDNDENRELLGELDGIDVLLQQLSVFKRHNPSTAEEQEMMENLFDSLCSCLMLSSNRERFLKGEGLQLMNLMLREKKISRSSALKVLDHAMIGPEGTDNCHKFVDILGLRTIFPLFMKSPRKIKKVGTTEKEHEEHVCSILASLLRNLRGQQRTRLLNKFTENDSEKVDRLMELHFKYLGAMQVADKKIEGEKHDMVRRGEIIDNDTEEEFYLRRLDAGLFVLQHICYIMAEICNANVPQIRQRVHQILNMRGSSIKIVRHIIKEYAENIGDGRSPEFRENEQKRILGLLENF
notes: human CTNNBL1, residues 77-563, point mutant made by site-directed mutagenesis; source: E. coli, purified as wild-type CTNNBL1; not shown: 6xHis, N-terminal, cleaved; VHb (bacterial hemoglobin), N-terminal, cleaved
B4: CTNNBL1^L87R/I101R (domain or fragment, human, UniProt Q8WYA6 77-563, looked up)
chain: B3 chain with L11R, I25R, R123Q
notes: human CTNNBL1, residues 77-563, double-point mutant (capping region); also called capping region mutant; source: E. coli, purified as wild-type CTNNBL1; not shown: 6xHis, N-terminal, cleaved; VHb (bacterial hemoglobin), N-terminal, cleaved
B5: CTNNBL1^Q238A/E278A/E282A (domain or fragment, human, UniProt Q8WYA6 77-563, looked up)
chain: B3 chain with R123Q, Q162A, E202A, E206A
notes: human CTNNBL1, residues 77-563, triple-point mutant (ARM III and ARM IV); also called Arm III and Arm IV mutant; source: E. coli, purified as wild-type CTNNBL1; not shown: 6xHis, N-terminal, cleaved; VHb (bacterial hemoglobin), N-terminal, cleaved
B6: CTNNBL1^E282A (domain or fragment, human, UniProt Q8WYA6 77-563, looked up)
chain: B3 chain with R123Q, E206A
notes: as for B3
B7: CTNNBL1^I101R (domain or fragment, human, UniProt Q8WYA6 77-563, looked up)
chain: B3 chain with I25R, R123Q
notes: as for B3
B8: CTNNBL1^Q192R (domain or fragment, human, UniProt Q8WYA6 77-563, looked up)
chain: B3 chain with Q116R, R123Q
notes: as for B3
B9: CTNNBL1^G148R/Q192R/Q199R (domain or fragment, human, UniProt Q8WYA6 77-563, looked up)
chain: B3 chain with G72R, Q116R
notes: human CTNNBL1, residues 77-563, triple-point mutant (ARM I and ARM II); also called ARM I and ARM II mutant; source: E. coli, purified as wild-type CTNNBL1; not shown: 6xHis, N-terminal, cleaved; VHb (bacterial hemoglobin), N-terminal, cleaved
B10: CTNNBL1^E278A (domain or fragment, human, UniProt Q8WYA6 77-563, looked up)
chain: B3 chain with R123Q, E202A
notes: as for B3
B11: CTNNBL1^G148R (domain or fragment, human, UniProt Q8WYA6 77-563, looked up)
chain: B3 chain with G72R, R123Q
notes: as for B3
B12: CTNNBL1^L87R (domain or fragment, human, UniProt Q8WYA6 77-563, looked up)
chain: B3 chain with L11R, R123Q
notes: as for B3
B13: CTNNBL1 (residues 77-563), wild type (domain or fragment, human, UniProt Q8WYA6 77-563, looked up)
chain: B3 chain with R123Q
notes: human CTNNBL1, residues 77-563, amplified from a human cDNA library; Dimer by SAXS at 0-200 mM NaCl and by SEC at 150 mM NaCl; monomer at 300-400 mM NaCl; also called native CTNNBL1; wild-type CTNNBL1; source: E. coli BL21(DE3)-T1R, purified (Ni-NTA, TEV protease, Ni-NTA, Superdex200); not shown: 6xHis, N-terminal, cleaved; VHb (bacterial hemoglobin), N-terminal, cleaved
B14: CDC5L^141-235 (domain or fragment, human, UniProt Q99459 141-235, looked up)
chain: PIDMDEDELEMLSEARARLANTQGKKAKRKAREKQLEEARRLAALQKRRELRAAGIEIQKKRKRKRGVDYNAEIPFEKKPALGFYDTSEENYQAL
notes: CDC5L of the human hPrp19/CDC5L complex, residues 141-235; holds NLS3 (residues 200-206: KKRKRKR); cloned into pPosKJ; pPosKJ adds 6xHis and VHb, both removed only by TEV protease; the His-tagged proteins were made without TEV, so VHb should still be on the chain in the pull-down; also called 6xHis-tagged CDC5L 141-235; source: E. coli, purified as CTNNBL1 with 300 mM NaCl in the buffers, without …
B15: CDC5L^197-285 (domain or fragment, human, UniProt Q99459 197-285, looked up)
chain: EIQKKRKRKRGVDYNAEIPFEKKPALGFYDTSEENYQALDADFRKLRQQDLDGELRSEKEGRDRKKDKQHLKRKKESDLPSAILQTSGV
notes: CDC5L of the human hPrp19/CDC5L complex, residues 197-285; holds NLS3 (residues 200-206: KKRKRKR); cloned into pPosKJ; pPosKJ adds 6xHis and VHb, both removed only by TEV protease; the His-tagged proteins were made without TEV, so VHb should still be on the chain in the pull-down; also called 6xHis-tagged CDC5L 197-285; source: E. coli, purified as CTNNBL1 with 300 mM NaCl in the buffers, without …

Molecular target: the molecule itself
Experiment: SEC; CDC5L truncations alone; data not shown
Conditions: not given

Binder | stoichiometry N
B1 | 2
B2 | 2

Molecular target: the molecule itself
Experiment: SEC; Superdex 200 10/300, 500 μl of 2 mg/ml protein, 0.5 ml/min, 40 mM Tris-HCl pH 8.0, 150 mM NaCl; molecular weight from calibration standards
Conditions: not given

Binder | stoichiometry N
B3 | 2
B4 | 2
B5 | 2
B6 | 2
B7 | 2
B8 | 2
B9 | 2
B10 | 2
B11 | 2
B12 | 2

Molecular target: the molecule itself
Experiment: SAXS; CTNNBL1 alone in solution, 0 mM NaCl, 4 °C, 1.0-5.0 mg/ml; oligomeric state from molecular mass (absolute I(0)), Guinier and p(r) analysis
Conditions: not given

Binder | stoichiometry N
B13 | 2

Molecular target: the molecule itself
Experiment: SAXS; CTNNBL1 alone in solution, 100 mM NaCl, 4 °C, 1.0-5.0 mg/ml; oligomeric state from molecular mass (absolute I(0)), Guinier and p(r) analysis
Conditions: not given

Binder | stoichiometry N
B13 | 2

Molecular target: the molecule itself
Experiment: SAXS; CTNNBL1 alone in solution, 200 mM NaCl, 4 °C, 1.0-5.0 mg/ml; oligomeric state from molecular mass (absolute I(0)), Guinier and p(r) analysis
Conditions: not given

Binder | stoichiometry N
B13 | 2

Each binder was assayed against B13 (assay: pull-down; 6xHis-tagged CDC5L truncations mixed with untagged CTNNBL1 in 50 mM Tris-HCl pH 8.0, 300 mM NaCl, dialysed against 50 mM Tris-HCl without NaCl at 4 °C overnight, loaded on Ni-NTA resin, washed with 10 mM imidazole, eluted with 300 mM imidazole, SDS-PAGE). Conditions: both partners purified.

Binder | binding result
B14 | binds
B15 | binds
B1 | binds
B2 | binds
